Here are results for 21 sequences from the DeepSol protein solubility set.

This data set can be described thus: soluble on expression in E. coli; label from the status in PepcDB or PDB records.
As to “MAHHHHHHMRRSALRGAARGNDNGAICRRYRDTSLCVVTSLTPSVHGGGSTSVVASSSSLSCPPRPSACYATAMHMSARHRLTNASILSNIKSMANEKDDLTSKLVYLRRRQEDAIAFAVKEKEMLAEKAKRQLAMEEEKLKVEARIEALISEAAQLGGPAAAQRMRDEIAKDKTRYVRSVDAFGDKTVRLQHTFAGLADNRIIHWWEYAYWNYIRYFFTQELLIAKDRFGNKFTVTWQFLKGREEQRRMYRKDSNKKHQPYGALATDERLWERWMRGHRGDPPSVAEEEHLRDYKKQFFGAMVLEDEEVEDALMRLMAHMNRASQTFQELDEDQVYGDAHRVAKPLRETERKPGEEMSARQKQKGATWTLGFARGDLFYNEEETQVMRTEMGHLFRNMEWQELEYKRQVRMNKQQPPHGKPPEGTTDPNTPDGDPMNHYWERTDLGIPYHDAVPDLTTPELERMRIESSQLEDERLAIRKELGLTDLGDIREGREPIKRDHAPFQPPPVSQRWKPKCWEESWGTGSGMKY”, the “soluble on expression in E. coli” value is recorded as “not soluble”.

Consider “MGSDKIHHHHHHMMTISNGNLRVDLRLIADMVEPGSRVLDVGCGEGALLDWLGRTKNVDGRGIELSMAGVSAAVSHGLSVIQGDADTDLKDYPSGAFDYVILSQTLQATYAPRTVLSNMLRIGRRAIVSFPNFGHWRVRLHLLTHGRMPVTDTLAYEWYDTPNIHFCTIRDFLDLCRDLGIRVERSIPLDRSGRTMAIPSCEGIANLFADQGLFVLSREG”, for which the “soluble on expression in E. coli” value is on record as “not soluble”.

Turning to “EQTQNLYIEGDNLDAMKLLKKSYAGKVDVIYIDPPYNTGKDFIFNDTFALSQEESDEKQGRYNEEGQRLFQNTEANGKFHSDWCSMMYARLMLARTLLNDNGIIFISIDDHELANLIKIGNEVFNASNFIDVFNWAKTETPENLSKKSKQIIEYIVCYQKKKNDMKFQGLKKESVSSNGLLNQPNSVGILTFPANKVVTSIPDGVIKAGMYGTDAYDVELLEDTTVRGGLFTAPVKLKAKFKWSQANLDKEIQKGTTIKIPTLKLSPSYEKLEYDPEVPPNLINYKVGVETNEQAGNHQLQFFDKKVFNFPKPVSLIQYLCEFIDTKNKDCIVMDFFSGSGTTAEAVMRMNMKPRKNKVKYILVQLPEDVTETIKKAKTPSEKEIMQNAIDFLTENHKALNICELSKERIRRAGDTIEAECNQRKSKDLPDIGFRVFRIADSNMKDVYYSAK”, the “soluble on expression in E. coli” value is reported as “not soluble”.

Turning to “MIDVKSIILIVLDGLGDRPGEILGYRTPLQAAYHPNMNRMASLGMTGLMHPISPGIRSGSDTSHMSLLGYDPRVYYQGRGPFEALGLHMDMKPGDLAFRANFATNRDGKIIDRRAGRINAGNDQLASAISIDIGNYKFRVKSGVEHRAALVVSGPNLSDKISDSDPHSEGKPPEPIRPLDPSADSTAKIMNEYLKRIREILRDHPVNVEREKNGQIPGNELLIRSAGKVPDIPSFQEKNGITGACVVGSPWLKGLCRLLGMAVIDVPGAAGTINSNYTGKIKTAIDASKRYDFVLVNIKATDVAGHDGDYELKRRVIEDIDIAMEPLLGQSDRIVVAITGDHSTPCSVKDHSGDPVPIVFYTDGIYSDDVKLFDEVSAMKGALRITTQDVLNILMEMAGRAEKFGSLEHHHHHH”, the “soluble on expression in E. coli” value was “soluble”.

In the case of “MKEEIIIAGFGGQGVLSMGKILAYSGLMEGKEVTWMPAYGPEQRGGTANVTVIVSDDKISSPILSKYDTAIILNQPSLEKFESRVKPGGILIYDGYGIINPPTRKDIKVYRIDAMDAANEMNNAKAFNMIVLGGLLKLRPIVTLENVVKGLKKTLPERHHHLIPMNEEAIKKGMELIRE”, the “soluble on expression in E. coli” value was “not soluble”.

Take “MAAEEATEFYLRYYVGHKGKFGHEFLEFEFREDGKLRYANNSNYKNDTIIRKEVFLTPAVLKECKRIVSESEILKEDDNNWPEPDRVGKQELEIVLGNEHISFATSKIGSLVDCQSSNDPEGLRIFYYLVQDLKCLVFSLISLHFKIKPILEHHHHHH”: the “soluble on expression in E. coli” value is “not soluble”.

Turning to “MKKSSILILIIICLVGCKKGSNETTITGEIKGLGTDTLYLYGMDELYDRIDTIYVENDKFSYTTSVDTITSAYLLLKNRIEYPVFLDKGNKIKIKGDTINLNFLTISGNIYNEEFTDFQKALEDPADPSEKAGEETVDKRITVEKANTAEEMAEEFILQHHSSYVSLYLLDKYFVQKETPDFSKIKKLVEVMTGVLQDKPYIERLNETITQAEKSEIGKYAPFFSLPNAKGEKITRSSDAFKQKSLLINFWASWNDSISQKQSNSELREIYKKYKKNKYIGMLGISLDVDKQQWKDAIKRDTLDWEQVCDFGGLNSEVAKQYSIYKIPANILLSSDGKILAKNLRGEELKKKIENIVEEATEKEKKNKQKK”, the “soluble on expression in E. coli” value was “not soluble”.

For “MGSDKIHHHHHHYRPLFDKDLSNADYDSSVWTFKNGILTATADQSIWTKVQYENFILDLEFKTDVNTNSGVVIYCTDKGNWIPSSIEIQIADDHHPEWQSYPEYWRCGSIYGHKGANEQLVVKKPGEWNRMIITAKGQQIDIELNGKHIVSANLADWTSGTTNPDGTEIPEWLPIPYANMPTKGYIGLQGKHGESNIWFRNIQLKQL”, the “soluble on expression in E. coli” value is listed as “not soluble”.

Take “MLQSINQLNPDIVVITGDLTENGFSAEYDGVKMFIDRIECKNRVLVPGNHDSKNAGYLHFEDLFENRFQTRNLGNMTIVGADSSQPDIDDGHLGRENYGWIKEAFSGENFKVFALHHHLVPIPLAGRENTVLVDAGDVLDLLNKCRVNLVLCGHCHIPHVWNLNNMLVVNAGTFCSSKTRGKTTQCFNLIQAENSEKNGNGESEKIEDGGWKVRVSRVFPQGNIEFITETVMLEHHHHHH”: the “soluble on expression in E. coli” value is recorded as “not soluble”.

Consider “ASMGKSAVIFVERATPATLTELKDALSNSILSVRDPWSIDFRTYRCSIKNLPADVSKLMYSITFHHHGRQTVLIKDNSAMVTTAAAADIPPALVFNGSSTGVPESIDTILSSKLSNIWMQRQLIKGDAGETLILDGLTVRLVNLFSSTGFKGLLIELQADEAGEFETKIAGIEGHLAEIRAKEYKTSSDSLGPDTSNEICDLAYQYVRALEL”, for which the “soluble on expression in E. coli” value is “soluble”.

As to “SGNLLKVLTCTDLEQEPNFFLDFENAQPTEAERETWEEVDVVLKDALGILDELQAYKGAGQEIREAIQNPNDEALQDQAWAAVVPLVGKLKKFYEFSQRLEAALHSLLRALTSETYDDPTQHLEREQALAKQFAEILHFTLRFDELKMTNPAIQNDFSYYRRTLSRMRINNVPAEGENEVNNELANRISLFYADATPMLKTLSDGTTKFVSENKNLPIENTTDVLSTMASVCKVMLETPEYRSRFSSEETVSFCLRVMVGVIILYDYVHPVGAFAKSSKIDMKGCIKVLKDQPPNSVEGLLNALRYTTKHLNDESTTKTIKSMLQ”, the “soluble on expression in E. coli” value is listed as “soluble”.

On to “MAQTEKLTDYVNPFVGTDGYGNVYPGAQIPFGGIQISPDTDSRFYDAASGYKYNHLTLMGFSLTHLSGTGIPDLGDFLFIPGTGEMKLEPGTHEDPDQGYRSRYSHDKEWASPNYYAVELADYGVKAEMTSGVRSGMFRFTYPESDNAFIMIDMNHTLWQSCEWSNLRMINDSTITGYKLVKGWGPERHVYFTATFSKKLEHHHHHH”, for which the “soluble on expression in E. coli” value was “not soluble”.

“MKIGVLGLQGAVREHVRAIEACGAEAVIVKKSEQLEGLDGLVLPGGESTTMRRLIDRYGLMEPLKQFAAAGKPMFGTCAGLILLAKRIVGYDEPHLGLMDITVERNSFGRQRESFEAELSIKGVGDGFVGVFIRAPHIVEAGDGVDVLATYNDRIVAARQGQFLGCSFHPELTDDHRLMQYFLNMVKEAKMASSLK”: the “soluble on expression in E. coli” value is “soluble”.

In the case of “MNAIADVQSSRDLRNLPINQVGIKDLRFPITLKTAEGTQSTVARLTMTVYLPAEQKGTHMSRFVALMEQHTEVLDFAQLHRLTAEMVALLDSRAGKISVSFPFFRKKTAPVSGIRSLLDYDVSLTGEMKDGAYGHSMKVMIPVTSLCPCSKEISQYGAHNQRSHVTVSLTSDAEVGIEEVIDYVETQASCQLYGLLKRPDEKYVTEKAYENPKFVEDMVRDVATSLIADKRIKSFVVESENFESIHNHSAYAYIAYP”, the “soluble on expression in E. coli” value is on record as “soluble”.

In the case of “MGSDKIHHHHHHMTQTSSLVINSFREITVNHPLWSHEFLIRCRAGNLFLPDVQILAVQMYKFSKEFNRILASILSCCEDESSQLVILENLFDEMGQGDITQSHPELFRQFTRALGIDDETLAALPTAPETRALIETYLQIPHKYGYLAALGAVCYASEGIVSSLYTQLYKGIIGATPLPKEALIFFEVHIDVDDSHAAKLAAVIEPRIPMNEEDIKVKLAIVEAMDARVQFFNGIQRQISKYSLYPDSWVHFDALL”, the “soluble on expression in E. coli” value is “not soluble”.

In the case of “RTEDLPKAVVFLEPQWYSVLEKDSVTLKCQGAYSPEDNSTQWFHNESLISSQASSYFIDAATVNDSGEYRCQTNLSTLSDPVQLEVHIGWLLLQAPRWVFKEEDPIHLRCHSWKNTALHKVTYLQNGKDRKYFHHNSDFHIPKATLKDSGSYFCRGLVGSKNVSSETVNITITQGL”, the “soluble on expression in E. coli” value is recorded as “soluble”.

On to “MSLTSVKEFPTIKAVRSFVIGGVGSGGDYHNVEGGHWLIDSPISTPCSRWEEYRKSRTSWGINVLGSFFVEIEASDGTVGYATGFGGPPACWLTHQHFERFLIGADPRRTNHLFEQMYRASMFYGRKGLPIAVISVIDLALWDLLGKIRKEPVYQMIGGATKDRLNFYCTGPEPTAAREMGFWGAKVPLPYCPDEGHVGMKKNIEFLRKHREAVGPDFPLMVDCYMSLNVSYTIELAEKCKDLDINWWEECLSPDDTDGFEQIKRAHPTLKFTTGEHEYSRFGFRKLVEGRNLDIIQPDVMWLGGLTELLRVSAMAAAYDIPVVPHASGPYSYHFVMSQPNTPFQEYLANSPDGKSVLPVFGDLFLDEIIPSKGFLTPKDLDQPGFGLTLNPAARAKMIPGEFWVNPAPLKALTSGAPAEEKKEGAVEAVVNKVQELTTSEGHHHHHH”, for which the “soluble on expression in E. coli” value is given as “soluble”.

As to “MGSDKIHHHHHHMQSLHGNCLIAYARHKYILTMVNGEYRYFNGGDLVFADASQIRVDKCVENFVFVSRDTLSLFLPMLKEEALNLHAHKKVSSLLVHHCSRDIPVFQEVAQLSQNKNLRYAEMLRKRALIFALLSVFLEDEHFIPLLLNVLQPNMRTRVCTVINNNIAHEWTLARIASELLMSPSLLKKKLREEETSYSQLLTECRMQRALQLIVIHGFSIKRVAVSCGYHSVSYFIYVFRNYYGMTPTEYQERSAQRLSNRDSAASIVAQGNFYGTDRSAEGIRL”, the “soluble on expression in E. coli” value was “not soluble”.

Regarding “MAHHHHHHMSSAFLAQLPFVGSSSTLGWQHDDVARSYMEHVLHRARVLLPRRGWRIGLIKEFYPRGATLLGLNVNAGSEVCIRFRVPGKKNEFLPFHEVLCTALHEFTHCVHSRHDRAFWNLYYDLVKECEALEITMIQQGMRLYPAISSTPMSCTGTASQQSRSGREGRTAATASSARGGGRRLGNGGARGGGRGAGGGMSTGSRHVAQTVIKAGRAVSSSSSSPPSSAAFPGEGRRLGGGGFRQYDAPIGFTPTRDALRRILAGAAERRLARTPPLAATVTLGSHPLALSLHNTTFPQRDEGQSEVDDDDAPDCVPHSLSGHEDGGGWNCPRCGFRNDDNVVGSCAFCADCDDEDEGEATWRKRPRLDSDHSPLETPTIVVSLATASKTAPTQQLQQQQLECTAEEHYIVVSDEDDS”, the “soluble on expression in E. coli” value is “soluble”.

For the sequence “FFETIHPDDRERIRSEIETAGDSGEPNSVEFRFVEPDGTVVWVVGQAVPVTDDEGNLTERVVGIATDITDLKQR”, the “soluble on expression in E. coli” value was “not soluble”.

As to “VRRDRAPPERGGAGTSQDGTSKNWFKITIPYGRKYDKAWLLSMIQSKCSVPFTPIEFHYENTRAQFFVEDASTASALKAVNYKILDRENRRISIIINSSAPPHTILNELKPEQVEQLKLIMSKRYDGSQQALDLKGLRSDPDLVAQNIDVVLNRRSSMAATLRIIEENIPELLSLNLSNNRLYRLDDMSSIVQKAPNLKILNLSGNELKSERELDKIKGLKLEELWLDGNSLCDTFRDQSTYISAIRERFPKLLRLDGHELPPPIAFDVEAPTTLPP”, the “soluble on expression in E. coli” value is recorded as “soluble”.
